Values of other authors, collected in paper PMC4384115, “Molecular Recognition of PTS-1 Cargo Proteins by Pex5p: Implications for Protein Mistargeting in Primary Hyperoxaluria” (Biomolecules, 2015).

Assays:
[1] = target: 3-Hydroxy-3-methylglutaryl-CoA lyase PTS1 peptide (Homo sapiens)
[2] = target: L-Bifunctional enzyme PTS1 peptide (Homo sapiens)
[3] = target: Carnitine acyl-transferase 1 PTS1 peptide (Homo sapiens)

- Kd [1]: 2000 nM
- Kd [2]: 1100 nM
- Kd [3]: 59 nM
Substance: Pex5p pbd (from UniProt P50542)
